Among the data in article doi:10.1101/2025.11.13.688182 are stoichiometry, BRC repeats to RAD51 (RAD51 per BRC repeat) values, retold here.

The test concerns the target RAD51 full-length [F86E, A89E], co-expressed with BRC repeats (human) (UniProt Q06609). Description: SEC-SAXS. On the technique in general: Size exclusion chromatography separates by hydrodynamic size, large species first.
UniProt Q06609, sequence (Q06609 whole entry F86E/A89E, the tested form may be a part): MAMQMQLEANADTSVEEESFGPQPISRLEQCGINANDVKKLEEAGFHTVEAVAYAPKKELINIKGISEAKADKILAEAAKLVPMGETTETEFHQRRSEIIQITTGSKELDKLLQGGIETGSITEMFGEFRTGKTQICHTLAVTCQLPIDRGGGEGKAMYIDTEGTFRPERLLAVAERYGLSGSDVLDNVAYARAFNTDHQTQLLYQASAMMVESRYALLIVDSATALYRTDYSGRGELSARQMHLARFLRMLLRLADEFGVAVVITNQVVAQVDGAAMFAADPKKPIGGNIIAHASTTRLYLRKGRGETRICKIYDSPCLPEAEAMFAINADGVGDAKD
Turning to “BRCA2 truncation BRC1-2 (from UniProt P51587 1-3418) (domain or fragment)”, the stoichiometry, BRC repeats to RAD51 (RAD51 per BRC repeat) was found to be 1.

In turn, “BRCA2 truncation BRC1-4 (from UniProt P51587 1-3418) (domain or fragment)” registered a stoichiometry, BRC repeats to RAD51 (RAD51 per BRC repeat) of 1.

In turn, “BRCA2 truncation BRC2-3 (from UniProt P51587 1-3418) (domain or fragment)” yielded a stoichiometry, BRC repeats to RAD51 (RAD51 per BRC repeat) of 1.

Turning to “BRCA2 truncation BRC2-4 (from UniProt P51587 1-3418) (domain or fragment)”, the stoichiometry, BRC repeats to RAD51 (RAD51 per BRC repeat) worked out at 1.

In the case of “BRCA2 truncation BRC3-4 (from UniProt P51587 1-3418) (domain or fragment)”, the stoichiometry, BRC repeats to RAD51 (RAD51 per BRC repeat) stood at 1.
